Data as given in the supplement of paper PMC6757056.
± gives the standard deviation of the averaged measurements.

B1: library; a variant is named by its letters at N, in order (parent)
chain: GCUGUCACCGAGAAACUGUGAAGUAUAUCUUAAACCUGGGCACUUAAAAGAUAUAUGGAGUUAGUAGUGCAACCUGCUCGGUCUGAUGAGUCCNNNNNNGGACGAAACAGC

Legend:
cyclic di-GMP [1] = variants of: B1; assay: normalized RNA/DNA level without ligand (relative to sTRSVctl = 100) (log10 (% of sTRSVctl)); HEK293T; ligand: cyclic di-GMP (c-di-GMP-II aptamer); higher = less ribozyme self-cleavage, higher mRNA level; settings: reporter: mCherry (pCS4076), ligand present: no
Procedure, shortened: (§1)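 Ribozyme switch library plasmids linked to reporters were introduced into HEK293T cells at 4 µg per 6-well well, with ligand, if any, added 1 h before. Total RNA was extracted with EDTA 72 h later, reverse-transcribed, amplified, barcoded and sequenced. RNA level was computed from RNA over DNA reads relative to a spiked-in non-cleaving sequence or the top sequences, then scaled and log-transformed. The top set was 25 sequences, values were ×100 and log10, and the cutoff was ≥100 DNA reads.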

cyclic di-GMP [2] = variants of: B1; assay: normalized RNA/DNA level with ligand (relative to sTRSVctl = 100) (log10 (% of sTRSVctl)); HEK293T; ligand: cyclic di-GMP (c-di-GMP-II aptamer); ligand concentration (+) RNA-Seq: 1 mM; higher = less ribozyme self-cleavage, higher mRNA level; settings: reporter: mCherry (pCS4076), ligand present: yes
Procedure, shortened: as §1

Row | Variant | normalized RNA/DNA level without ligand (log10) (cyclic di-GMP [1]) | normalized RNA/DNA level with ligand (log10) (cyclic di-GMP [2])
1 | UGUGUC | 1.756 ± 0.0091 | 1.86 ± 0.1
2 | UGUGUG | 1.69 ± 0.053 | 1.86 ± 0.056
3 | UGUGUU | 1.665 ± 0.0047 | 1.82 ± 0.16
4 | UGUGUA | 1.61 ± 0.045 | 1.74 ± 0.072
5 | AUAAUG | 1.58 ± 0.034 | 1.75 ± 0.059
6 | AUAAUC | 1.677 ± 0.0067 | 1.77 ± 0.08
7 | UGUCGA | 1.76 ± 0.033 | 1.81 ± 0.14
8 | UGUCGG | 1.74 ± 0.027 | 1.86 ± 0.077
9 | UGUCGC | 1.76 ± 0.049 | 1.85 ± 0.15
10 | UGUCGU | 1.648 ± 0.0058 | 1.84 ± 0.12
11 | AGUCCC | 1.77 ± 0.042 | 1.87 ± 0.069
12 | AGUCCU | 1.77 ± 0.023 | 1.87 ± 0.086
13 | AGUCCA | 1.663 ± 0.0054 | 1.78 ± 0.049
14 | UGUCUC | 1.79 ± 0.0075 | 1.88 ± 0.087
15 | UGUCUA | 1.71 ± 0.037 | 1.84 ± 0.15
16 | UGUCUG | 1.736 ± 0.0044 | 1.88 ± 0.08
17 | UGUCUU | 1.73 ± 0.0071 | 1.88 ± 0.1
18 | AUAAGA | 1.4 ± 0.11 | 1.62 ± 0.12
19 | AUAAGG | 1.54 ± 0.057 | 1.71 ± 0.12
20 | AUAAGC | 1.6 ± 0.022 | 1.77 ± 0.082
21 | AUAAGU | 1.55 ± 0.033 | 1.73 ± 0.12
22 | CUACCA | 1.621 ± 0.016 | 1.79 ± 0.12
23 | CUACCU | 1.59 ± 0.032 | 1.77 ± 0.078
24 | CUACCG | 1.82 ± 0.095 | 1.91 ± 0.098
25 | CUACCC | 1.76 ± 0.046 | 1.88 ± 0.1
26 | CGUGUA | 1.4 ± 0.062 | 1.56 ± 0.13
27 | CGUGUU | 1.6 ± 0.033 | 1.78 ± 0.12
28 | CGUGUC | 1.67 ± 0.055 | 1.82 ± 0.038
29 | CGUGUG | 1.678 ± 0.0082 | 1.8 ± 0.092
